{"source": "patent US20210301293", "about": "“DNA APTAMERS, METHOD FOR INHIBITING HUMAN GALECTIN-1 AND METHOD OF TREATING A MAMMAL IN NEED THEREOF” (published 2021)", "binders": {"B1": {"name": "SEQ ID NO. 9 (ssDNA)", "DNA": "AGCTGACACAGCAGGTTGGTGCCCAAAAGAGCCAATCCACGACGACACCCCAAAAACCATATCACGAATACCCGAGTCGAGCAATCTCGAAAT"}, "B2": {"name": "SEQ ID NO. 10 (ssDNA)", "DNA": "AGCTGACACAGCAGGTTGGTGCCAACAAGAAAAGAAACCGTTACAGAAGACACTACAGAATAAGTGAAAAGCCGAGTCGAGCAATCTCGAAAT"}, "B3": {"name": "SEQ ID NO. 12 (ssDNA)", "DNA": "AGCTGACACAGCAGGTTGGTGCGCCCAATACAGGCGCAGTATCTGTCCGTGGGCCGGGTAAAAGTTACGGACCGAGTCGAGCAATCTCGAAAT"}}, "key": {"[1]": {"molecular_target": "T1, human galectin-1 (hGal1), native (Homo sapiens, UniProt P09382 SEQ:1-134)", "T1 sequence (P09382 2-135)": "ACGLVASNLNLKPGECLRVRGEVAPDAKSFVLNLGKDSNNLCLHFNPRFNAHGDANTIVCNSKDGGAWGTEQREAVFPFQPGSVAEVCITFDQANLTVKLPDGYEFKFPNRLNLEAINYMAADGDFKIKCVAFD", "assay": "thermal shift assay; among the four with greatest Tm variation", "settings": "tags: expressed in E. coli M-15, lactosyl-Sepharose purified; chain copies: 2", "procedure": "(§1) Thermofluor experiments were performed on an Mx3005 RT-PCR (Agilent Technologies) using the SYPRO® Orange dye (492/610 nm) (Invitrogen) as fluorescent probe. The purified (native and alkylated) protein samples were incubated for 30 min with increasing concentration of the molecules of interest, centrifuged, and submitted to the thermal denaturation assay, totalizing four distinct experiments. In a 96-well plate (Agilent Technologies) 20 μl of the reaction containing 5 μM of each protein in buffer PBS 1× and 5× SYPRO® Orange were heated from 25° C. to 95° C. at a rate of 1° C./min. The experimental result was processed as in the protocol previously described and the melting temperature was obtained using GraphPad Prism software (www.graphpad.com)."}, "[2]": {"molecular_target": "T1, human galectin-1 (hGal1), native", "assay": "thermal shift assay; results stated similar to SEQ ID NO 4 and 9", "settings": "tags: expressed in E. coli M-15, lactosyl-Sepharose purified; chain copies: 2", "procedure": "as §1"}}}
{"binder": "B1", "values": [{"measurement": "binding result", "setting": "[1]", "value": "binds"}]}
{"binder": "B2", "values": [{"measurement": "binding result", "setting": "[2]", "value": "binds"}]}
{"binder": "B3", "values": [{"measurement": "binding result", "setting": "[2]", "value": "binds"}]}
